Biological target: T1, IL-1 receptor type I (Flag-IL-1RI) (human, UniProt P14778 18-569)
T1 construct: not shown: Flag tag from pCMV-1-Flag expression vector
T1 sequence (looked up): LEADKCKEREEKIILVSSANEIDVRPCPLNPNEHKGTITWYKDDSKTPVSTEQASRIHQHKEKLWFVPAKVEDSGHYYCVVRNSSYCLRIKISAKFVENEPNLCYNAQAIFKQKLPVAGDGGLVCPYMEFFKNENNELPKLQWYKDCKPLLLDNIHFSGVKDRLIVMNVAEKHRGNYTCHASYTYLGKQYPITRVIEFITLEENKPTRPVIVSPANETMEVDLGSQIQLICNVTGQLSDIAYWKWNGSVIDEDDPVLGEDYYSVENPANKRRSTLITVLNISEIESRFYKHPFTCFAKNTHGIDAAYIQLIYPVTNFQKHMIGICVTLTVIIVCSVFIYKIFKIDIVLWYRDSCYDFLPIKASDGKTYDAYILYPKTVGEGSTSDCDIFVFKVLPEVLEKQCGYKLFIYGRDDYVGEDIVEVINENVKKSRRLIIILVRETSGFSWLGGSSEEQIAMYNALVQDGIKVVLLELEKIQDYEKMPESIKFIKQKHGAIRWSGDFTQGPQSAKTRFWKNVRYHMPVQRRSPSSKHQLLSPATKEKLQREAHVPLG
Test: coimmunoprecipitation from transfected 293/293T cell lysates
Method: The total amount of DNA was kept constant. 24-36 hours after transfection, cells were lysed in 0.5 ml buffer (1% NP40, 150 mM NaCl, 50 mM Tris, 1 mM EDTA and protease inhibitors cocktail). Cell lysates were adjusted to 0.7 M NaCl and the indicated antibodies were added for 1 to 4 hours. Immune complexes were precipitated by the addition of protein-G-Sepharose (Sigma). After extensive washing, the Sepharose heads were boiled in sample buffer and the eluted proteins fractionated by SDS-PAGE. Subsequent protein immunoblotting was performed as described (Chinnaiyan, A., et al., Cell 81:505-12 (1995)).

binding result: no binding
B1: IRAK-2 (97-590) (enzyme)
chain: PEIRCPIPAFPDSVKPEKPLAASVRKAEDEQEEGQPVRMATFPGPGSSPARAHQPAFLQPPEEDAPHSLRSDLPTSSDSKDFSTSIPKQEKLLSLAGDSLFWSEADVVQATDDFNQNRKISQGTFADVYRGHRHGKPFVFKKLRETACSSPGSIERFFQAELQICLRCCHPNVLPVLGFCAARQFHSFIYPYMANGSLQDRLQGQGGSEPLPWPQRVSICSGLLCAVEYLHGLEIIHSNVKSSNVLLDQNLTPKLAHPMAHLCPVNKRSKYTMMKTHLLRTSAAYLPEDFIRVGQLTKRVDIFSCGIVLAEVLTGIPAMDNNRSPVYLKDLLLSEIPSSTASLCSRKTGVENVMAKEICQKYLEKGAGRLPEDCAEALATAACLCLRRRNTSLQEVCGSVAAVEERLRGRETLLPWSGLSEGTGSSSNTPEETDDVDNSSLDASSSMSVAPWAGAATPLLPTENGEGRLRVIVGREADSSSEACVGLEPPQDVT
notes: Truncated IRAK-2 lacking the N-terminal domain (DD); also called IRAK-2 (97-590)-MyC; mutant version of IRAK-2 lacking the first 96 amino acid residues; not shown: C-terminal Myc(-His) tag from pCDNA3-MyC-His vector
